Test results from patent publication US7176279.

Assays:
hMC4-R (human) = hMC4-R (human) (UniProt P32245); test: competition with 125I-NDP-MSH, HEK 293 hMC4-R membranes, 1 µM peptide
hMC5-R (human) = hMC5-R (human) (UniProt P33032); test: competition with 125I-NDP-MSH, HEK 293 hMC5-R membranes, 1 µM peptide
hMC3-R (human) = hMC3-R (human) (UniProt P41968); test: competition with 125I-NDP-MSH, HEK 293 hMC3-R membranes, 1 µM peptide
hMC3-R (human), sequence (P41968 whole entry): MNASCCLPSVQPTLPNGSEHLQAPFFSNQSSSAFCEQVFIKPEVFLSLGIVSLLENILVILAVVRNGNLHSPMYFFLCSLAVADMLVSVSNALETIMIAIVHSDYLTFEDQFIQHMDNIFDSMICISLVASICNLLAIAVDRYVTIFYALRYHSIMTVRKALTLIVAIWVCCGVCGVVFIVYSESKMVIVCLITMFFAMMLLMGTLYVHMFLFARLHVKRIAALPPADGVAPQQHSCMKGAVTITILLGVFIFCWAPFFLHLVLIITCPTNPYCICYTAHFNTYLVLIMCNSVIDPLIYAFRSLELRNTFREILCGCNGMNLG

hMC4-R (human), sequence (P32245 whole entry): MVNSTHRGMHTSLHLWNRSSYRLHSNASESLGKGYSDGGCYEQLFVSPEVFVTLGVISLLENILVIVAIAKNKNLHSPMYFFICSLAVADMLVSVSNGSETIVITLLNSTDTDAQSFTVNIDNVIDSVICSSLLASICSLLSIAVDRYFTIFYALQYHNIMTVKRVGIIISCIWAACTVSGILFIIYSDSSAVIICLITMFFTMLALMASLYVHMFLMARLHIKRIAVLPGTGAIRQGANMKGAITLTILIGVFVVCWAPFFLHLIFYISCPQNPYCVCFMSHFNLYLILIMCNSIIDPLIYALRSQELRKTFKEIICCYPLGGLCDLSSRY
hMC5-R (human), sequence (P33032 whole entry): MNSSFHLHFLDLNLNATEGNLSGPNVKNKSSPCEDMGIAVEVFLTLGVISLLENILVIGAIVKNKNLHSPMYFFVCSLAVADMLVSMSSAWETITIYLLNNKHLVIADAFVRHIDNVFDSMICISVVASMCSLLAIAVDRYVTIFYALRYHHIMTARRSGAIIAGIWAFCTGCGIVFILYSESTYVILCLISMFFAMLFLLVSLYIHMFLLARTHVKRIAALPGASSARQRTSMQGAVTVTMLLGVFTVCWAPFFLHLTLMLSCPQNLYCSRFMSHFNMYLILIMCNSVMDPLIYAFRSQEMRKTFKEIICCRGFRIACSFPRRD

Ac-Nle-cyclo(-Asp-His-D-Phe-D-Arg-Trp-Lys)-OH (peptide)
Percent Inhibition At 1 µM concentration (hMC4-R (human)): 4%

Ac-Nle-cyclo(-Asp-D-His-D-Phe-Arg-Trp-Lys)-OH (peptide)
Percent Inhibition At 1 µM concentration (hMC4-R (human)): 9%
Percent Inhibition At 1 µM concentration (hMC5-R (human)): 8%

Ac-Nle-cyclo(-Asp-His-D-Phe-Orn-Trp-Lys)-OH (peptide)
Percent Inhibition At 1 µM concentration (hMC3-R (human)): 6%

Ac-Nle-cyclo(-Asp-His-Phe-Arg-Trp-Lys)-OH (SEQ ID NO:2) (peptide)
Percent Inhibition At 1 µM concentration (hMC4-R (human)): 4%
Percent Inhibition At 1 µM concentration (hMC5-R (human)): 7%
